# Where a chain is given by its changes, count along the chain named. Numbers in names are those of the source.
# T1: NgMAT (Neisseria gonorrhoeae, UniProt Q5FAC0)
# T1 construct: gene metK; full length, C-terminal His6 tag, codon-optimised synthetic gene, E. coli BL21(DE3), dimer without substrates, functional homotetramer with substrates
# T1 sequence (Q5FAC0 1-389): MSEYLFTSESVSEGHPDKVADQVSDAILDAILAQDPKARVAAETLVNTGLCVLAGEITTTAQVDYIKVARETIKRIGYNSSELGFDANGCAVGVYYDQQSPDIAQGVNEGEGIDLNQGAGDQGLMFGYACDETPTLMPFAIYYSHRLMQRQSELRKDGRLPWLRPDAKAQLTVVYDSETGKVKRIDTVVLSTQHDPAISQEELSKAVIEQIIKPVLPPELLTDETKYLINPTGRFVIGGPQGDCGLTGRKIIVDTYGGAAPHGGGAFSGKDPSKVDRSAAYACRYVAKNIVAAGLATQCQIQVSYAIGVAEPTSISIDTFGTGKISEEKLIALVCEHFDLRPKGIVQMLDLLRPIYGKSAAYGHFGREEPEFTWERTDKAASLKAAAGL
# B1: Escherichia coli methionine S-adenosyltransferase (enzyme)
# chain: AKHLFTSESVSEGHPDKIADQISDAVLDAILEQDPKARVACETYVKTGMVLVGGEITTSAWVDIEEITRNTVREIGYVHSDMGFDANSCAVLSAIGKQSPDINQGVDRADPLEQGAGDQGLMFGYATNETDVLMPAPITYAHRLVQRQAEVRKNGTLPWLRPDAKSQVTFQYDDGKIVGIDAVVLSTQHSEEIDQKSLQEAVMEEIIKPILPAEWLTSATKFFINPTGRFVIGGPMGDCGLTGRKIIVDTYGGMARHGGGAFSGKDPSKVDRSAAYAARYVAKNIVAAGLADRCEIQVSYAIGVAEPTSIMVETFGTEKVPSEQLTLLVREFFDLRPYGLIQMLDLLHPIYKETAAYGHFGREHFPWEKTDKAQLLRDAAGLK
# notes: methionine S-adenosyltransferase (MAT) of Escherichia coli; Homotetramer (dimer of dimers) in solution; the self-association rows are of this chain with itself; also called EcMAT; E. coli MAT; source: E. coli BL21 (DE3), pET24a, purified (Ni-NTA)
# B2: Neisseria gonorrhoeae methionine S-adenosyltransferase (enzyme, UniProt B4RQ36 1-389, looked up)
# chain: T1 sequence (Q5FAC0 1-389) with Q200H
# notes: methionine S-adenosyltransferase of Neisseria gonorrhoeae; also called NgMAT; N. gonorrhoeae MAT; source: E. coli BL21 (DE3), pET24a, purified (Ni-NTA)
# B3: Escherichia coli methionine S-adenosyltransferase E67K K98Q (enzyme)
# chain: MAKHLFTSESVSEGHPDKIADQISDAVLDAILEQDPKARVACETYVKTGMVLVGGEITTSAWVDIEKITRNTVREIGYVHSDMGFDANSCAVLSAIGQQSPDINQGVDRADPLEQGAGDQGLMFGYATNETDVLMPAPITYAHRLVQRQAEVRKNGTLPWLRPDAKSQVTFQYDDGKIVGIDAVVLSTQHSEEIDQKSLQEAVMEEIIKPILPAEWLTSATKFFINPTGRFVIGGPMGDCGLTGRKIIVDTYGGMARHGGGAFSGKDPSKVDRSAAYAARYVAKNIVAAGLADRCEIQVSYAIGVAEPTSIMVETFGTEKVPSEQLTLLVREFFDLRPYGLIQMLDLLHPIYKETAAYGHFGREHFPWEKTDKAQLLRDAAGLK
# notes: methionine S-adenosyltransferase (MAT) of Escherichia coli with the salt-bridge residues of the small interface swapped to those of NgMAT; made from the EcMAT construct by site directed mutagenesis; also called EcMATmut; E. coli E67K K98Q; source: E. coli BL21 (DE3), pET24a, purified (Ni-NTA)
# B4: Lactiplantibacillus plantarum methionine S-adenosyltransferase (enzyme, UniProt Q88XB8 1-395, looked up)
# chain: MSERHLFTSESVSEGHPDKIADQISDAILDAMLAQDPQARVAVETSVTTGLVLVFGEVSTKAYVDIQKVVRDTIKSIGYVDGQYGFDGDNCAVLVSLDEQSPDIAQGVDDSLETRSGDADPLDQIGAGDQGMMFGYAINETPELMPLPIALSHRLMRKIAALRKDGTIKWLRPDAKAQVTVEYDEDNQPKRIDTVVLSTQHDPDVDLDTIRQTVIDQVIKAVLPADLLDDQTKYLVNPTGRFVIGGPQGDAGLTGRKVIVDTYGGFAHHGGGAFSGKDATKVDRSASYAARYIAKNVVAAGLADQVEVQLAYAIGVAEPVSIAVDTAGTGKVSDEALINAIRENFDLRPAGIIKMLDLQRPIYRQTAAYGHFGRTDIDLPWEHTDKVDALKAVFK
# notes: also called LpMAT; MAT from Lactiplantibacillus planatrum; source: E. coli BL21 (DE3), pET24a, purified (Ni-NTA)
# Key:
# NgMAT [1] = target: T1, NgMAT; assay: size exclusion chromatography, ligand-induced tetramerization; assay type: binding; conditions: 10 uM NgMAT; AMP-PNP alone or with methionine
# NgMAT [2] = target: T1, NgMAT; assay: SAM formation, size exclusion chromatography; assay type: biochemical
# [3] = target: the molecule itself; assay: SEC; Superdex 200 Increase, 25 mM TrisHCl, 150 mM KCl, 1 mM DTT; protein diluted from a 300 μM stock, pre-incubated diluted for an hour, then injected; EcMAT 1.56–100 μM, NgMAT 10–100 μM; no substrates
# [4] = target: the molecule itself; assay: SEC; diluted from ~300 μM stocks to 10 μM, incubated 100 hr at 25°C in 50% glycerol, sampled by SEC until equilibrium (~75 hr); Kd calculated from the tetrameric fraction; tetramer to dimers
# [5] = target: the molecule itself; assay: SEC; 10 μM NgMAT pre-incubated with saturated methionine alone or ATP alone
# [6] = target: the molecule itself; assay: SEC; 10 μM NgMAT pre-incubated with saturated methionine and ATP together
# [7] = target: the molecule itself; assay: crystal structure; EcMATmut + 5 mM AMPPNP + 5 mM methionine, 1.6 Å, space group P42212, one copy in the asymmetric unit
# [8] = target: the molecule itself; assay: crystal structure; LpMAT + 5 mM AMPPNP + 5 mM methionine, 2.82 Å, space group P1, eight copies in the asymmetric unit
molecule,measurement,setting,value
Nc1ncnc2c1ncn2[C@@H]1O[C@H](COP(=O)(O)OP(=O)(O)NP(=O)(O)O)[C@@H](O)[C@H]1O [AMP-PNP],"size exclusion chromatography, ligand-induced tetramerization",NgMAT [1],We found that AMP‐PNP increased the tetrameric species substantially
Nc1ncnc2c1ncn2[C@@H]1O[C@H](COP(=O)(O)OP(=O)(O)OP(=O)(O)O)[C@@H](O)[C@H]1O [ATP],"SAM formation, size exclusion chromatography",NgMAT [2]; 10 uM NgMAT with methionine,in the presence of both substrates we saw a marked shift of NgMAT toward tetramerization
CSCC[C@H](N)C(=O)O [methionine],"SAM formation, size exclusion chromatography",NgMAT [2]; 10 uM NgMAT with ATP,in the presence of both substrates we saw a marked shift of NgMAT toward tetramerization
B1,stoichiometry N,[3],4
same,Kd,[4],8.2 µM
B2,stoichiometry N,[5],2
same,stoichiometry N,[6],4
B3,Kd,[4],90.3 µM
same,stoichiometry N,[7],4
B4,stoichiometry N,[8],2
